Measured values as given in EP0607103A2, “Somatostatin analogs containing chelating groups and their radiolabeled compositions” (SANDOZ LTD., priority 1993, dated 1994).

Parameters: species or system rats
Conditions: rat, in vivo
Experimental: The affinity of the CHELATES OF THE INVENTION for somatostatin receptors can also be shown by in vivo testing, according to standard test methods, e.g. as disclosed in GB-A-2, 225,579. For example the compound of Example 2 gives a tumor accumulation of 1.9 ± 0.4 % injected dose per g (n = 6) 4 hours after injection into rats bearing an exocrine pancreatic tumor.

Question: With C[C@@H](O)[C@@H]1NC(=O)[C@H](CCCCN)NC(=O)[C@@H](Cc2c[nH]c3ccccc23)NC(=O)[C@H](Cc2ccccc2)NC(=O)[C@@H](NC(=O)[C@@H](Cc2ccccc2)NC(=S)Nc2ccc(CC(CNCCN)CNCCN)cc2)CSSC[C@@H](C(=O)N[C@H](CO)[C@@H](C)O)NC1=O [Example 2, ^99mTc labelled compound of Example 1, metal not drawn] as the molecule, how does the tissue uptake at 4 h read?
Answer: The tissue uptake at 4 h was 1.9 ± 0.4 %ID/g.
